Like-named read-outs stand apart in the source and are kept apart here.
Experiments:
[1] = molecular target: receptor on VERO E6 cells (not identified in the filing)
[2] = molecular target: receptor on VERO E6 cells (not identified in the filing); assay: FACS competition against S2-Fc (330 ng/mL) on VERO E6 cells; agent at 1 µg/mL
[3] = molecular target: receptor on VERO E6 cells (not identified in the filing); assay: FACS competition against S2-Fc (330 ng/mL) on VERO E6 cells; agent at 10 µg/mL

recombinant RBD2 (from UniProt P59594 284-735)
Percent of Inhibition [1]: 100% | Percent of Inhibition [2]: 100% | Percent of Inhibition [3]: 100%

Negative control (blocking agent)
Percent of Inhibition [1]: 0% | Percent of Inhibition [2]: 0% | Percent of Inhibition [3]: 0%

Reference: patent publication US20080213284A1
